Measured values reported in paper PMC4783868 (Nature, 2015).

Target: T1, PB1 subunit of the influenza C/Johannesburg/1/1966 virus polymerase (FluPolC) (influenza C/Johannesburg/1/1966 virus, UniProt Q9IMP4)
T1 sequence: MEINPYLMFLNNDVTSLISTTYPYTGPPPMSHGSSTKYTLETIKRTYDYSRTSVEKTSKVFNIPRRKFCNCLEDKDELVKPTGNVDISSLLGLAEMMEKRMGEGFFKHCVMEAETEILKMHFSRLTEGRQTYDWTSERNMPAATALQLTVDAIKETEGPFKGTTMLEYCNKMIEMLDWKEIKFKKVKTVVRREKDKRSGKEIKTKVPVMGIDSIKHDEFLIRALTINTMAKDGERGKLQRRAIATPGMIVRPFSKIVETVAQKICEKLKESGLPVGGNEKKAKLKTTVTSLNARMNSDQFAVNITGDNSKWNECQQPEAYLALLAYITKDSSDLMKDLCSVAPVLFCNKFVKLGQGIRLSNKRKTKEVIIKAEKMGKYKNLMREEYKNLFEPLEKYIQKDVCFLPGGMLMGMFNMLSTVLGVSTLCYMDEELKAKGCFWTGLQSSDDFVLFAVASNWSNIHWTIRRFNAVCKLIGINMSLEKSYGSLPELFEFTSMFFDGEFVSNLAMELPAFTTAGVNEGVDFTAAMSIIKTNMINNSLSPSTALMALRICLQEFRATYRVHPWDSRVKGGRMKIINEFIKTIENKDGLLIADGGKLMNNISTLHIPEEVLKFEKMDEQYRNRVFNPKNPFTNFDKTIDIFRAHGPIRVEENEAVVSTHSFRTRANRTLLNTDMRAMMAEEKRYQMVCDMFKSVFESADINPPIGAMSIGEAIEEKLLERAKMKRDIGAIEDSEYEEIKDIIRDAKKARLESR
Test: crystal structure

B1: P3 subunit of the influenza C/Johannesburg/1/1966 virus polymerase (FluPolC) (natural protein)
chain: MSKTFAEIAEAFLEPEAVRIAKEAVEEYGDHERKIIQIGIHFQVCCMFCDEYLSTNGSDRFVLIEGRKRGTAVSLQNELCKSYDLEPLPFLCDIFDREEKQFVEIGITRKADDSYFQSKFGKLGNSCKIFVFSYDGRLDKNCEGPMEEQKLRIFSFLATAADFLRKENMFNEIFLPDNEETIIEMKKGKTFLELRDESVPLPFQTYEQMKDYCEKFKGNPRELASKVSQMQSNIKLPIKHYEQNKFRQIRLPKGPMAPYTHKFLMEEAWMFTKISDPERSRAGEILIDFFKKGNLSAIRPKDKPLQGKYPIHYKNLWNQIKAAIADRTMVINENDHSEFLGGIGRASKKIPEISLTQDVITTEGLKQSENKLPEPRSFPRWFNAEWMWAIKDSDLTGWVPMAEYPPADNELEDYAEHLNKTMEGVLQGTNCAREMGKCILTVGALMTECRLFPGKIKVVPIYARSKERKSMQEGLPVPSEMDCLFGICVKSKSHLNKDDGMYTIITFEFSIREPNLEKHQKYTVFEAGHTTVRMKKGESVIGREVPLYLYCRTTALSKIKNDWLSKARRCFITTMDTVETICLRESAKAEENLVEKTLNEKQMWIGKKNGELIAQPLREALRVQLVQQFYFCIYNDSQLEGFCNEQKKILMALEGDKKNKSSFGFNPEGLLEKIEECLINNPMCLFMAQRLNELVIEASKRGAKFFKTD
Question: Does B1 bind?
Answer: Result: binds
